Experimental data reported in US20170152300A1 (CSL, published 2017).
Values joined by “and” are separate entries in the source; they are usually repeats but may differ in a detail not shown here. Identical values can stand only once.

T1: recombinant Factor VIII (as described in Zollner et al 2013) (Homo sapiens (Human), UniProt P00451 20-2351)
T1 construct: also called FVIII
T1 sequence: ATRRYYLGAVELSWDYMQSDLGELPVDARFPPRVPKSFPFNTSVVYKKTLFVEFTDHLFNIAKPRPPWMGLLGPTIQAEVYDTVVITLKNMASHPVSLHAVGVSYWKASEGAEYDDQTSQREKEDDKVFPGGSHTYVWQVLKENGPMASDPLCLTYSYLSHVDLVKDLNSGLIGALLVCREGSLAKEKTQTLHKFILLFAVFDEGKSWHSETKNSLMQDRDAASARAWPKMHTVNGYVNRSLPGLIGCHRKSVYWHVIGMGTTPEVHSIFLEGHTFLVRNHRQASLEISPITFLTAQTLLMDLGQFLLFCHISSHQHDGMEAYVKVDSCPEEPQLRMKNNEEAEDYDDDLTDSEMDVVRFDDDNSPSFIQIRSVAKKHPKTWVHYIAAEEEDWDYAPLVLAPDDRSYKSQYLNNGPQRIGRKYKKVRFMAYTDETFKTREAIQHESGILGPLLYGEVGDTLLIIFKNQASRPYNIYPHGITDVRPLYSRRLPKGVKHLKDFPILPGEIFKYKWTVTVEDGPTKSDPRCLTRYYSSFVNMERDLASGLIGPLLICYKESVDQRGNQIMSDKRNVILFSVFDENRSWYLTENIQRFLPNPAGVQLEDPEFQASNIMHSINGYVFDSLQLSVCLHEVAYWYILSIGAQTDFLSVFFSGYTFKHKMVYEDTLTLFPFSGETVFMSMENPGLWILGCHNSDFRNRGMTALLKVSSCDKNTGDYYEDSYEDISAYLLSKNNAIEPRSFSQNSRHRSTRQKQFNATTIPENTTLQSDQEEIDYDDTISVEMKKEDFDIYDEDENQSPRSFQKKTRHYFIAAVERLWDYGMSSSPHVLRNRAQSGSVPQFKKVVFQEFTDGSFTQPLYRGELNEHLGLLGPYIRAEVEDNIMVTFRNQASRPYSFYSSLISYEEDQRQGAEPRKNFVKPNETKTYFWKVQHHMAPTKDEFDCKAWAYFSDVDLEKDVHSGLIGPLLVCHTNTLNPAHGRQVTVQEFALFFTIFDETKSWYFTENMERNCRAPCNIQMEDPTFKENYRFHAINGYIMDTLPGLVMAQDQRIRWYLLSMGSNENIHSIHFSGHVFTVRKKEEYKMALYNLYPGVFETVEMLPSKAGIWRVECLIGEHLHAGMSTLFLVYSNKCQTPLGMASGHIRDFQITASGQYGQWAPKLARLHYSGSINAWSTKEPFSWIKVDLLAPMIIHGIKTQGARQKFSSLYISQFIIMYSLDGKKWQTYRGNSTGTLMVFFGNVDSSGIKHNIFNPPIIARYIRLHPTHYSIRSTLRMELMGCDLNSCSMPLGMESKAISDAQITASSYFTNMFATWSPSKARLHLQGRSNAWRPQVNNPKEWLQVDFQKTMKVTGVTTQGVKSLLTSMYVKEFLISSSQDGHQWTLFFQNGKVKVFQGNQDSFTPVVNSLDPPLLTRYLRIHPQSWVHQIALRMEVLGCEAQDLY


Assays:
[1] = molecular target: recombinant Factor VIII (as described in Zollner et al 2013) (Homo sapiens (Human)) (UniProt P00451); test: SPR, anti-His capture
[2] = molecular target: T1, recombinant Factor VIII (as described …); test: SPR, anti-His capture
Protocol: Binding kinetics were investigated by surface plasmon resonance using a Biacore 4000 biosensor at 37° C. Each mutant was captured from cell culture medium to a density of 40-150RU on a CM-5 sensor chip pre-immobilised with anti-His antibody (14,000 RU). In an initial screening study, FVIII was injected over the captured mutants for 5 minutes at 1 nM and dissociation monitored for 5 minutes.
All sensorgrams were double referenced by subtraction of signals from a reference spot (containing only immobilised anti His antibody) and from a blank injection. Binding kinetics were determined by fitting the double referenced sensorgrams to a 1:1 kinetic model.

Row | Kd [1] | koff [1] | kon [1] | fold decrease in off-rate vs wild type [2] | fold increase in affinity vs wild type [2] | Molecule
1 | 0.255 nM and 0.199 nM | 0.00159 s⁻¹ and 0.0025 s⁻¹ | 6.23e+06 M⁻¹ s⁻¹ and 1.25e+07 M⁻¹ s⁻¹ |  |  | Hu-vWF[764-1270]-8His dupS764/S764P/S766I
2 |  |  |  | 22 fold | 30 fold | Hu-vWF[764-1270]-8His S764P-S766I (other) PLICRPPMVKLVCPADNLRAEGLECTKTCQNYDLECMSMGCVSGCLCPPGMVRHENRCVALERCPCFHQGKEYAPGETVKIGCNTCVCRDRKWNCTDHVCDATCSTIGMAHYLTFDGLKYLFPGECQYVLVQDYCGSNPGTFRILVGNKGCSHPSVKCKKRVTILVEGGEIELFDGEVNVKRPMKDETHFEVVESGRYIILLLGKALSVVWDRHLSISVVLKQTYQEKVCGLCGNFDGIQNNDLTSSNLQVEEDPVDFGNSWKVSSQCADTRKVPLDSSPATCHNNIMKQTMVDSSCRILTSDVFQDCNKLVDPEPYLDVCIYDTCSCESIGDCACFCDTIAAYAHVCAQHGKVVTWRTATLCPQSCEERNLRENGYECEWRYNSCAPACQVTCQHPEPLACPVQCVEGCHAHCPPGKILDELLQTCVDPEDCPVCEVAGRRFASGKKVTLNPSDPEHCQICHCDVVNLTCEACQEPGGLVVPPTDAPVSPTTLYVEDISEPPLHDFHHHHHHHH
